How the values were obtained:
[1] = Ratio (FA) of Vmax/Km of AMP to that of compound
[2] = Ratio (FA) of Vmax/Km of the compound
[3] = substrate: Nc1ncnc2c1ncn2C1O[C@H](COP(=O)(O)O)[C@H](O)[C@@H]1O; test: (§1) Km value as a substrate for Pyrophosphate Synthetase (PRPP); conditions: Escherichia coli
[4] = substrate: Nc1ncnc2c1ncn2CCCCCP(=O)(O)O; test: as §1; conditions: Escherichia coli
[5] = substrate: Nc1ncnc2c1ncn2[C@@H]1C[C@H](CCP(=O)(O)O)C[C@@H]1O; test: as §1; conditions: Escherichia coli
[6] = substrate: Nc1ncnc2c1ncn2[C@H]1CC[C@@H](CCOP(=O)(O)O)C1; test: as §1; conditions: Escherichia coli
[7] = substrate: Nc1ncnc2c1ncn2[C@H]1CC[C@@H](CCP(=O)(O)O)C1; test: as §1; conditions: Escherichia coli
[8] = substrate: Nc1ncnc2c1ncn2C1CCC(COP(=O)(O)O)O1; test: Vmax as a substrate for 0.4 ug of Pyrophosphate Synthetase (PRPP) per assay; conditions: Escherichia coli
[9] = substrate: Nc1ncnc2c1ncn2C1O[C@H](COP(=O)(O)O)[C@H](O)[C@@H]1O; test: (§2) Vmax as a substrate for Pyrophosphate Synthetase (PRPP); conditions: Escherichia coli
[10] = substrate: Nc1ncnc2c1ncn2CCCCCP(=O)(O)O; test: as §2; conditions: Escherichia coli
[11] = substrate: Nc1ncnc2c1ncn2CCOCP(=O)(O)O; test: as §2; conditions: Escherichia coli
[12] = substrate: Nc1ncnc2c1ncn2[C@@H]1C[C@H](CCP(=O)(O)O)C[C@@H]1O; test: as §2; conditions: Escherichia coli
[13] = substrate: Nc1ncnc2c1ncn2[C@H]1CC[C@@H](CC(F)(F)P(=O)(O)O)C1; test: as §2; conditions: Escherichia coli
[14] = substrate: Nc1ncnc2c1ncn2[C@H]1CC[C@@H](CCOP(=O)(O)O)C1; test: as §2; conditions: Escherichia coli
[15] = substrate: Nc1ncnc2c1ncn2[C@H]1CC[C@@H](CCP(=O)(O)O)C1; test: as §2; conditions: Escherichia coli
[16] = substrate: Nc1ncnc2c1ncn2C1CCC(COP(=O)(O)O)O1; test: Vmax as a substrate for per mg of Pyrophosphate Synthetase (PRPP); conditions: Escherichia coli
[17] = substrate: Nc1ncnc2c1ncn2C1CCC(COP(=O)(O)O)O1; test: Km value as a substrate for 0.4 ug of Phosphribosyl Pyrophosphate Synthetase (PRPP) per assay; conditions: Escherichia coli

Molecule Nc1ncnc2c1ncn2CCCCCP(=O)(O)O has a Ratio [1] of 32.

In the case of Nc1ncnc2c1ncn2C1CCC(COP(=O)(O)O)O1 (stereo unspecified), the Ratio [2] is reported as 1.

Molecule Nc1ncnc2c1ncn2[C@@H]1C[C@H](CCP(=O)(O)O)C[C@@H]1O has a Ratio [1] of 11.

Nc1ncnc2c1ncn2[C@H]1CC[C@@H](CCOP(=O)(O)O)C1 gave a Ratio [1] of 179.

Work on Nc1ncnc2c1ncn2[C@H]1CC[C@@H](CCP(=O)(O)O)C1 yielded a Ratio [1] of 63.

Nc1ncnc2c1ncn2[C@@H]1O[C@H](COP(=O)(O)O)[C@H](O)[C@@H]1O gave a Ratio [1] of 13.

B1: Ribose-phosphate pyrophosphokinase 1 (Homo sapiens), P60891 (protein)
chain: MPNIKIFSGSSHQDLSQKIADRLGLELGKVVTKKFSNQETCVEIGESVRGEDVYIVQSGCGEINDNLMELLIMINACKIASASRVTAVIPCFPYARQDKKDKSRAPISAKLVANMLSVAGADHIITMDLHASQIQGFFDIPVDNLYAEPAVLKWIRENISEWRNCTIVSPDAGGAKRVTSIADRLNVDFALIHKERKKANEVDRMVLVGDVKDRVAILVDDMADTCGTICHAADKLLSAGATRVYAILTHGIFSGPAISRINNACFEAVVVTNTIPQEDKMKHCSKIQVIDISMILAEAIRRTHNGESVSYLFSHVPL
In the case of B1, the Km [3] is reported as 1700 µM, the Km [4] is reported as 690 µM and the Km [5] is reported as 240 µM. For the same molecule, the Km [6] was 260 µM, the Km [7] was 550 µM and the Vmax [8] was 100%. The Vmax [9] was 45%, the Vmax [10] was 7.5% and the Vmax [11] was 0.2%. The Vmax [12] was 7.4%, the Vmax [13] was 0.07% and the Vmax [14] was 0.5%. For the same molecule, the Vmax [15] was 3%, the Vmax [16] was 34.5 µM/h and the Km [17] was 290 µM.
